Drawing on PMC4735842, this text covers stoichiometry N for one substance.

For the experiment, the target named is Cereolysin O (CLO) of Bacillus cereus ATCC 11778 (BC1) (Bacillus cereus ATCC 11778 (endogenous in the culture)). Kind of experiment: SDS-PAGE with Western blot; retentates of BC1 microaerobic culture supernatants (grown with or without 1 g/L BSA, 3 kDa cut-off filter); boiled 5 min in Laemmli buffer with 50 mM DTT; 4-20% Tris-Glycine gel; blot with rabbit anti-streptolysin O antibody.

What is called stoichiometry N is a count of units in the complex or per binding partner. On to “Cereolysin O (CLO) of Bacillus cereus ATCC 11778 (BC1) (natural protein)”, for which the stoichiometry N is 2.
